The source of these data is PMC3520109 (mBio, 2012).

The subject of one series is 43A-c. The following applies: read-out: apparent Km; 100 mM citrate pH 6, 1 g/liter BSA, 50°C.
Substrate in the series “purified protein”: O=[N+]([O-])c1ccc(O[C@@H]2O[C@H](CO)[C@@H](O)[C@H](O)[C@H]2O)cc1
Briefly: purified protein. To be noted: 100 mM citrate pH 6, 1 g/liter BSA, 50°C.

For the molecule `O=[N+]([O-])c1ccc(O[C@@H]2OC[C@@H](O)[C@H](O)[C@H]2O)cc1` [pNPX], in the series with 43A-c, the Km came to 600 µM.

B1: Bgl1C (Thermobifida fusca) (protein)
chain: TSQSTTPLGNLEETPKPDIRFPSDFVWGVATASFQIEGSTTADGRGPSIWDTFCATPGKVENGDTGDPACDHYNRYRDDVALMRELGVGAYRFSIAWPRIQPEGKGTPVEAGLDFYDRLVDCLLEAGIEPWPTLYHWDLPQALEDAGGWPNRDTAKRFADYAEIVYRRLGDRITNWNTLNEPWCSAFLGYASGVHAPGRQEPAAALAAAHHLMLGHGLAAAVMRDLAGQAGRSVRIGVAHNQTTVRPYTDSEADRDAARRIDALRNRIFTEPLVKGRYPEDLIEDVAAVTDYSFVQDGDLKTISANLDMMGVNFYNPSWVSGNRENGGSDRLPDEGYSPSVGSEHVVEVDPGLPVTAMGWPIDPTGLYDTLTRLANDYPGLPLYITENGAAFEDKVVDGAVHDTERIAYLDSHLRAAHAAIEAGVPLKGYFAWSFMDNFEWALGYGKRFGIVHVDYESQTRTVKDSGWWYSRVMRNGGIFGQE
In the case of B1, in the series “purified protein”, the Km turned out to be 0.6 mM and the kcat is 2.08 s⁻¹.

For orientation: Km means the concentration of substrate that gives half-maximal velocity. A word on the kcat: it is the maximal rate divided by the concentration of active sites.
